Consider 20 molecules from article PMC10266124 (mAbs, 2023).

B1: mAb10 (52) (antibody, V domains shown)
VH: QVQLVQSGAEVKKPGSSVKVSCKASGYTFTSYGISWVRQAPGQGLEWMGGIIPMFGTTNYAQKFQGRVTITADKSTSTAYMELSSLRSEDTAVYYCARDRGDTIDYWGQGTLVTVSS
VL: DIQMTQSPSSLSASVGDRVTITCRASQGISNNLNWYQQKPGKAPKLLIYAASSLESGVPSRFSGSGSGTDFTLTISSLQPEDFATYYCQQGNGFPLTFGPGTKVDIK
B2: mAb02 (casirivimab) (antibody, V domains shown)
VH: QVQLVESGGGLVKPGGSLRLSCAASGFTFSDYYMSWIRQAPGKGLEWVSYITYSGSTIYYADSVKGRFTISRDNAKSSLYLQMNSLRAEDTAVYYCARDRGTTMVPFDYWGQGTLVTVSS
VL: DIQMTQSPSSLSASVGDRVTITCQASQDITNYLNWYQQKPGKAPKLLIYAASNLETGVPSRFSGSGSGTDFTFTISGLQPEDIATYYCQQYDNLPLTFGGGTKVEIK
B3: mAb23 (COVA1-16) (antibody, V domains shown)
VH: QVQLVQSGAEVKKPGASVKVSCKASGYTFTSYYMHWVRQAPGQGLEWMGIINSSGGSTSYAQKFQGRVTMTRDTSTSTVYMELSSLRSEDTAVYYCARPPRNYYDRSGYYQRAEYFQHWGQGTLVTVSS
VL: DIQLTQSPSSLSASVGDRVTITCQASQDISNYLNWYQQRPGKAPKLLIYDASNLETGVPSRFSGSGSGTDFTFTISSLQPEDIATYYCQQYDNPPLTFGGGTKLEIK
B4: mAb24 (S2E12) (antibody, V domains shown)
VH: not shown
VL: DIVLTQTPGTLSLSPGERATLSCRASQSVSSSYLAWYQQKPGQAPRLLIYGASSRATGIPDRFSGSGSGTDFTLTISRLEPEDFAVYYCQQYVGLTGWTFGQGTKVEIK
B5: mAb27 (H014) (antibody, V domains shown)
VH: EVQLVQSGAEVKKPGATVKISCKVSGYSFSNYYIHWVKQAPGKSLEWIGYIDPFNGGTSDNLKFKGAATLTADTSTDTAYMELSSLRSEDTAVYYCARSEYDPYYVMDYWGQGTTVTVSS
VL: IVLTQSPFQSVSPKEKVTITCRASQSISSNLHWYQQKPDQSPKLLIKYASQSISGIPSRFSGSGSGTDFTLTINSLEAEDFGIYFCQQTNFWPYIFGQGTKLEIL
B6: mAb15 (C119) (antibody, V domains shown)
VH: QVQLVQSGAEVKKPGASVKVSCKASGYTFTSYYMHWVRQAPGQGLEWMGIINPSGGSTSYAQKLQGRVTMTRDTSTSTVYMELSSLRSEDTAVYYCARANHETTMDTYYYYYYMDVWGKGTTVTVSS
VL: QSALTQPASVSGSPGQSITISCTGTSSDVGGYKYVSWYQRHPGKAPKLMIYDVSNRPSGVSNRFSGSKSGNTASLTISGLQAEDEADYYCSSYTSSSTSVVFGGGTQLTVL
B7: mAb14 (C002) (antibody, V domains shown)
VH: EVQLVESGGGVVQPGRSLRLSCAASGFTFSIYGMHWVRQAPGKGLEWVAVISYDGSNKYYADSVKGRFTISRDNSKNTLYLQMNSLRAEDTAVYYCAKEGRPSDIVVVVAFDYWGQGTLVTVSS
VL: not shown
B8: mAb08 (B38) (antibody, V domains shown)
VH: EVQLVESGGGLVQPGGSLRLSCAASGFIVSSNYMSWVRQAPGKGLEWVSVIYSGGSTYYADSVKGRFTISRHNSKNTLYLQMNSLRAEDTAVYYCAREAYGMDVWGQGTTVTVSS
VL: DIVMTQSPSFLSASVGDRVTITCRASQGISSYLAWYQQKPGKAPKLLIYAASTLQSGVPSRFSGSGSGTEFTLTISSLQPEDFATYYCQQLNSYPPYTFGQGTKLEIK
B9: mAb21 (S2A4) (antibody, V domains shown)
VH: EVQLVESGGGLVQPGGSLRLSCAASGFTFSSYWMNWVRQAPGKGLEWVANIKQDGSEKYYVDSVKGRFTISRDNAKNSLFLQMNSLRAEDTAVYYCARVWWLRGSFDYWGQGTLVTVSS
VL: NFMLTQPHSVSESPGKTVTISCTGSSGSIASNYVQWYQQRPGSAPTTVIYEDNQRPSGVPDRFSGSIDSSSNSASLTISGLKTEDEADYYCQSYDSSNHVVFGGGTKLTVL
B10: mAb25 (S2M11) (antibody, V domains shown)
VH: EVQLVQSGAEVKKPGASVKVSCKASGYTFTGYYMHWVRQAPGQGLEWMGWINPISSGTSYAQTFQGRVTMTSDTSITTAYMELSRLRSDDTAVYYCARAAPFYDFWSGYSYFDYWGQGTLVTVSS
VL: not shown
B11: mAb29 (regdanvimab) (antibody, V domains shown)
VH: QITLKESGPTLVKPTQTLTLTCSFSGFSLSTSGVGVGWIRQPPGKALEWLALIDWDDNKYHTTSLKTRLTISKDTSKNQVVLTMTNMDPVDTATYYCARIPGFLRYRNRYYYYGMDVWGQGTTVTVSS
VL: ELVLTQPPSVSAAPGQKVTISCSGSSSNIGNNYVSWYQQLPGTAPKLLIYDNNKRPSGIPDRFSGSKSGTSATLGITGLQTGDEADYYCGTWDSSLSAGVFGGGTELTVL
B12: mAb03 (imdevimab) (antibody, V domains shown)
VH: QVQLVESGGGVVQPGRSLRLSCAASGFTFSNYAMYWVRQAPGKGLEWVAVISYDGSNKYYADSVKGRFTISRDNSKNTLYLQMNSLRTEDTAVYYCASGSDYGDYLLVYWGQGTLVTVSS
VL: QSALTQPASVSGSPGQSITISCTGTSSDVGGYNYVSWYQQHPGKAPKLMIYDVSKRPSGVSNRFSGSKSGNTASLTISGLQSEDEADYYCNSLTSISTWVFGGGTKLTVL
B13: mAb01 (bamlanivimab) (antibody, V domains shown)
VH: QVQLVQSGAEVKKPGSSVKVSCKASGGTFSNYAISWVRQAPGQGLEWMGRIIPILGIANYAQKFQGRVTITADKSTSTAYMELSSLRSEDTAVYYCARGYYEARHYYYYYAMDVWGQGTAVTVSS
VL: not shown
B14: mAb18 (CV07-250) (antibody, V domains shown)
VH: QVQLVQSEAEVKEPGASVEVSCKASGYNFTNFAISWVRQAPGQGLEWMGWISGYNGDTNSAQKFLGRVTMTTDTSTTTAYMELRSLRSDDTAVYYCAGSDNYGFPYNGMDVWGQGTTVTVFN
VL: QSALTQPPSASGSPGQSVTISCTGTSSDLGAYHFVTWYQHYPGKAPKVMIYGVRKRPSGVPDRFSGSKSGNTASLTVSGLQDEDEADYYCSSYAGNNDFVFGGGTKLTVL
B15: mAb09 (etesevimab) (antibody, V domains shown)
VH: EVQLVESGGGLVQPGGSLRLSCAASGFTVSSNYMSWVRQAPGKGLEWVSVIYSGGSTFYADSVKGRFTISRDNSMNTLFLQMNSLRAEDTAVYYCARVLPMYGDYLDYWGQGTLVTVSS
VL: not shown
B16: mAb11 (298) (antibody, V domains shown)
VH: QVQLVQSGAEVKKPGASVKVSCKASGGTFSTYGISWVRQAPGQGLEWMGWISPNSGGTDLAQKFQGRVTMTRDTSTSTVYMELSSLRSEDTAVYYCASDPRDDIAGGYWGQGTLVTVSS
VL: not shown
B17: mAb22 (S304) (antibody, V domains shown)
VH: VQLVESGGGLVQPGGSLRLSCAASGFTFSSYDMHWVRQTTGKGLEWVSTIGTAGDTYYPDSVKGRFTISREDAKNSLYLQMNSLRAGDTAVYYCARGDSSGYYYYFDYWGQGTLLTVSS
VL: DIEMTQSPSSLSAAVGDRVTITCRASQSIGSYLNWYQQKPGKAPKLLIYAASSLQSGVPSRFSGSGSGTDFTLTISSLQPEDFAIYYCQQSYVSPTYTFGPGTKVDIK
B18: mAb16 (C121) (antibody, V domains shown)
VH: not shown
VL: QSALTQPASVSGSPGQSITISCTGTSSDVGSYNLVSWYQQHPGKAPKLMIYEGSKRPSGVSNRFSGSKSGNTASLTISGLQAEDEADYYCCSYAGSSTLVFGGGTKLTVL
B19: mAb19 (CV07-270) (antibody, V domains shown)
VH: QVQLVESGGGLVKPGGSLRLSCAASGFTFSDYYMTWIRQAPGKGLEWVSYISSSGSTIYYADSVKGRFTISRDNAKNSLYLQMNSLRAEDTAVYYCARARGSSGWYRIGTRWGNWFDPWGQGTLVTVSS
VL: QSALTQPASVSGSPGQSITISCTGTSSDVGGYNYVSWYQQHPGKAPKLMIYEVSNRPSGVSNRFSGSKSGNTASLTISGLQAEDEADYYCSSYTSSSNVVFGGGTMLTVL
B20: mAb26 (4A8) (antibody, V domains shown)
VH: EVQLVESGAEVKKPGASVKVSCKVSGYTLTELSMHWVRQAPGKGLEWMGGFDPEDGETMYAQKFQGRVTMTEDTSTDTAYMELSSLRSEDTAVYYCATSTAVAGTPDLFDYYYGMDVWGQGTTVTVSS
VL: EIVMTQSPLSSPVTLGQPASISCRSSQSLVHSDGNTYLSWLQQRPGQPPRLLIYKISNRFSGVPDRFSGSGAGTDFTLKISRVEAEDVGVYYCTQATQFPYTFGQGTKVDIK

For this assay, the target named is Biotinylated SARS-CoV-2 spike S1 protein (SARS-CoV-2, Wuhan, UniProt P0DTC2, biotin (biotinylated)). In words: SPR.
Consider B1, for which the binding result is on record as “binds”. Turning to B2, the binding result is “binds”.

Take B3: the binding result is given as “binds”. Turning to B4, the binding result is on record as “binds”.

With B5, the binding result is reported as “binds”. For B6, the binding result is reported as “binds”.

With B7, the binding result is reported as “binds”. Consider B8, for which the binding result is “binds”. The same measure for B9: “binds”; for B10: “binds”; for B11: “binds”. As to B12, the binding result is “binds”. With B13, the binding result is “binds”. As for B14, the binding result is listed as “binds”. B15: the binding result is listed as “binds”. For the molecule B16, the binding result was “binds”. For B17, the binding result is recorded as “binds”. The same measure for B18: “binds”. Take B19: the binding result is “binds”.

As to B20, the binding result is “binds”.
